The series is described as follows: yeast display, Sf9 membrane polyspecificity reagent, FACS + sequencing; frameworks hold sequencing errors. The method in brief: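 Galactose-induced (36–48 hours) yeast carrying a synthetic nanobody display library were exposed to 10% biotinylated, detergent-solubilized Sf9 membrane reagent at 4 °C for 1 hour. FACS followed streptavidin microbead enrichment, using low and high (top ~1%) gates for expression (anti-HA) and reagent binding (streptavidin). Colony PCR, MiSeq 2 × 250 sequencing and CDR-length filtering followed. Labels for polyreactivity reflect the gate of origin.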
With “QVQLVESGGGLVHAGGSLRLSCATSGRTFKYNAMGWYRQAPGKEREFVAAISSRGGSTTYYADSVTGRFTISRDNAKNTVYLQMKSLKPEDTAVYYCADRTPPPASRSRVYYWGQCTQVTVSS”, the “polyreactivity (PSR sort gate)” value was “high polyreactivity”.

With “QVQLVESGGGLVHAGGSLRLSCDASGLKFRAYDMGRYRQAPGKERELVAAITSSSGSTYYADSVKGRFTISRDNAKNTVYLQMNSLKPEDTSVYYCNAYSTFGWYDYWGQGTQVTVSS”, the “polyreactivity (PSR sort gate)” value is reported as “low polyreactivity”.

As to “QVQLVESGGGLVHAGGSLRLSCSASGIIFYRYAMGWYRQAPGKERELVAAITWSGVSTSYADSVKGRFTISRDNAKNTVYLKMNSLKPEDTAVYYCNIDPGTLFGDMDSWGQGNQVTVSS”, the “polyreactivity (PSR sort gate)” value is on record as “low polyreactivity”.

In the case of “QVQLVESGGGLVHAGGSLRLSCSASGRTFRHYAMGWYRQAPGKEREMVAVISWRGTGTYYADSVKGRFTISRDNAKNTVYLQMNSLKPEDTAVYYCATVWGLGYRMNYWGQGTQVTVSS”, the “polyreactivity (PSR sort gate)” value is on record as “high polyreactivity”.

For the sequence “QVQLVESGGGLVHAGGSLRLSCSASGSILKSYAMGWYRQAPGKERDLVAAITYRDGSTYYADSVKGRFTISRDTAKNTVYLQMISLKPEDTAVYYCASEPYWWNVFYPGYNYWGQGNQVTVSS”, the “polyreactivity (PSR sort gate)” value is reported as “high polyreactivity”.

Turning to “QVQLVESGGGLVHAGGSLSLICAASGITFDVNAMGWYRQAPGKERELVAAITAGGNTYYADSVKGRFTISRDNAKNTVYLQMNSLKPEDTAVYYCAAVSTSLYWAGYDYWGQGTKVTVSS”, the “polyreactivity (PSR sort gate)” value is “low polyreactivity”.

With “QVQLVESGGGLVHAGRSLRLSCAASGFIFVRNAMGWYRQAPGKERELVAAITRSGGSTSYADSVKGRFTISRDNEKNTVYLQMNSLKPEDTAVYYCAAQYGYWGQGTQVTVSS”, the “polyreactivity (PSR sort gate)” value is listed as “high polyreactivity”.

For “QVQLVESGGGLVHEGGSLRLSCAASGRLFKSYAMGWYRQAPVKERELVAAISRSGGRTYYADSVKGRFTISRDNAKNTVYLQMNSLKPEDTAVYYCAATTFVAPYWGQGTQVTVSS”, the “polyreactivity (PSR sort gate)” value is “low polyreactivity”.

Take “QVQLVESGGGLVKAGCSLRLSCAASGFTFGRYAMGWYRQAPGKERELVAAISRTGGRTYYADSVKGRFTISRDNAKNTVYLQMNSLKPEDTAVYYCAADKGGTYFNGDSWGQGTQVTVSS”: the “polyreactivity (PSR sort gate)” value is “high polyreactivity”.

For “QVQLVESGGGLVKAGGILRLSCAASGSIFGRYVMGWYRPAPGKEREVVAAINRSGGRTYYADSVKGRFSISRDNAKYTVYLQMNSLKPEDTAVYYCATYTGSSASKEVPYDYWGQGTQVTVSS”, the “polyreactivity (PSR sort gate)” value was “high polyreactivity”.

With “QVQLVESGGGLVKAGGSHRLSLASYGTFRYYAMGWYRQAPGKERELDAGISRSGGSTYYEDSVKGRFTISRDNAKNTVYLQMNSQNPEDTEVYDCAAGNYYYWYKTKYYHYDYWGQGTQVTVSS”, the “polyreactivity (PSR sort gate)” value is given as “high polyreactivity”.

For the sequence “QVQLVESGGGLVKAGGSLGLSCAASGRTLRYYAMGWYRQAPRKERELVASISIGGSTYYADSVKGRFTISRDNAKNTVYLQMNSLKPEDTAVYYCATDYSNSGYGYWGQCTQVTVSS”, the “polyreactivity (PSR sort gate)” value is “low polyreactivity”.

For the sequence “QVQLVESGGGLVKAGGSLRFSCAASVITFVWYAMGWYRQAPGKERDLVASIDSSVSTNYADSVKGRFTISRDNEKNTVYFQMNSLKPEDTAVYYCAAYFFFGQVGGMEYWGQGTQVTVSS”, the “polyreactivity (PSR sort gate)” value is “low polyreactivity”.

In the case of “QVQLVESGGGLVKAGGSLRLICAASGFTFRAYAMGWYRQAPGTERELVAAINRRGGRTYYADSVKGRFTISRDNAKNTVYLQMNSLKPEDTAVYYCAAVKSGPSKGVGPPATAYDYWGQGTQVTVSS”, the “polyreactivity (PSR sort gate)” value is “high polyreactivity”.

For the sequence “QVQLVESGGGLVKAGGSLRLSCAASAWYAMGWYRQAPGKEREFVAAITFSGSSTYYADSVKGRFTISRDNAKNTVYLQMNSLKPEVTAVYYCNADWWEWGQGTQVTVSS”, the “polyreactivity (PSR sort gate)” value is listed as “low polyreactivity”.

Consider “QVQLVESGGGLVKAGGSLRLSCAASGFICVDYDRGGSRQAPGQERELVAAINWSGGSTDYADSVKGRFTISRDNAKNTVYLQMNSLKPEDTAVYYCGAEGQDCRFYWGLGTQVTVSS”, for which the “polyreactivity (PSR sort gate)” value is given as “low polyreactivity”.

For “QVQLVESGGGLVKAGGSLRLSCAASGFTFLNNTMGWYRQAPGKERELVAGITSSGDRTYYADSVKGRFTISRDNAKNTVYLQMNSLKPEDTAVYYCNADSSYPPGYDYWGQGTQVTVSS”, the “polyreactivity (PSR sort gate)” value was “low polyreactivity”.

Take “QVQLVESGGGLVKAGGSLRLSCAASGFTFTRYAMGWYRQAPGKDRELVAAISSGSRSYYADSVKGRFTISRDNANNTVYLQMNSLKPEDTAVYNCASPDYTYYGHYDSWGQGTQVTVSS”: the “polyreactivity (PSR sort gate)” value was “high polyreactivity”.

In the case of “QVQLVESGGGLVKAGGSLRLSCAASGITFHDYPMGWYRQAPGKERELVAAISSGGSTNYADSVKGRFTISRDNEKNTVYLQLNSLKPEDTAVYYCAAKYTDIVARLSLYYYWGQGTQVTVSS”, the “polyreactivity (PSR sort gate)” value is “low polyreactivity”.

For the sequence “QVQLVESGGGLVKAGGSLRLSCAASGLIFKLNAMGWYRQSPGKERELVAAIRASTGSTYYADSVKGRFTISRDNAKNTVYLQMNSLKPEDTAVYYCAVSLRWYFFLMDYWGQGTQVTVSS”, the “polyreactivity (PSR sort gate)” value is “high polyreactivity”.

Turning to “QVQLVESGGGLVKAGGSLRLSCAASGNIFTSNAMGWYRQAPGKERELVAAITSGGSTYYADSVKGRFTISRDNAKNTVYLQMNSLKPEDTAVYYCATLPRPHLRPYYYWGQGTQVTVSS”, the “polyreactivity (PSR sort gate)” value is given as “high polyreactivity”.

Take “QVQLVESGGGLVKAGGSLRLSCAASGRIFKYNAMGWYRQAPGKERELVAVITSGGSTYYADSVKGRFTISRDNAKNTVYLQMNSLKPEDTAVYYWGQGTQVTVSS”: the “polyreactivity (PSR sort gate)” value was “low polyreactivity”.

As for “QVQLVESGGGLVKAGGSLRLSCAASGRNFSQNVMGWYRQAPGKERELVADISRGGSTNYADSVKGRFTISRDNAKNSVFLQMNSLKPEDTAVYYCAARLFWYYYHPYYYWGQGTQVTVSS”, the “polyreactivity (PSR sort gate)” value is reported as “high polyreactivity”.

As for “QVQLVESGGGLVKAGGSLRLSCAASGRTFGNYAMGWYRQAPGKERELVASMNTGGSTSYADSVKGRFTISRDNAKNTVYLQMNSLKPEDTAVYYCARSFFWYRLHDYWGQGTQVTVSS”, the “polyreactivity (PSR sort gate)” value is “low polyreactivity”.

As for “QVQLVESGGGLVKAGGSLRLSCAASGRTFLRNAMGWYRQAPGKERELVATITRGGSTYYADSVKGRFTISRDNAKYTCYLEIISLIPEDTAVYYCAKDITGGFRRPDYGYLGQGTQVTVSS”, the “polyreactivity (PSR sort gate)” value was “low polyreactivity”.

For “QVQLVESGGGLVKAGGSLRLSCAASGRTFQIYAMGWYRQAPGKESELVAAISRTGASTYYADSVKGRFTISRDKAKNTLFLQLNSLKPEDTAVYYCAANGHCRVYFGGCHWGQGTQVTVSS”, the “polyreactivity (PSR sort gate)” value is on record as “high polyreactivity”.

On to “QVQLVESGGGLVKAGGSLRLSCAASGRTFRFYAMGWYRQAPGKEREFVAAISRSVGSTYYADSVKGRFTISRDNAKNTVYLQMNSLKPEDTAVYYCNADYRSRYVEYDYWGQGTQVTVSS”, for which the “polyreactivity (PSR sort gate)” value was “high polyreactivity”.

Consider “QVQLVESGGGLVKAGGSLRLSCAASGRTLRSYDMGWYRQAPGKEREVVAAITRTGGDTYYADSVKGRFTISRDNAKNTVYLQMNRLKPDDTAVYYCAAQRYRGYDYWGQGTQVTVSS”, for which the “polyreactivity (PSR sort gate)” value is on record as “high polyreactivity”.

For “QVQLVESGGGLVKAGGSLRLSCAASGSIFYSYAMGWYRQAPGKERELVAAITDSGDSTYYADSVKGRFTISRDYAKNTVYLQMNSLKPEDTAVYYCAAGFYPYYYWGLGTQVTVSS”, the “polyreactivity (PSR sort gate)” value is reported as “low polyreactivity”.

Turning to “QVQLVESGGGLVKAGGSLRLSCAASGSTFAKYAMGWYRQAPGKERELDASIRLSGGSTYYADSVKGRFTISRDNAKNNVYLQMNSLKPEDTAVYYCNKQFATFYYGFDYYYWGQGTQVTVSS”, the “polyreactivity (PSR sort gate)” value was “low polyreactivity”.

For the origin of these results see the nanobody polyreactivity screen of Harvey et al. (2022).
